Measured values from patent publication US20180185504A1 (Regeneron, published 2018).
Changes are numbered by the printed parent chain. Numbers in names are those of the source.

T1: human PRLR construct with an HA tag on HEK293/hPRLR cells (human, UniProt P16471 25-622)
T1 sequence: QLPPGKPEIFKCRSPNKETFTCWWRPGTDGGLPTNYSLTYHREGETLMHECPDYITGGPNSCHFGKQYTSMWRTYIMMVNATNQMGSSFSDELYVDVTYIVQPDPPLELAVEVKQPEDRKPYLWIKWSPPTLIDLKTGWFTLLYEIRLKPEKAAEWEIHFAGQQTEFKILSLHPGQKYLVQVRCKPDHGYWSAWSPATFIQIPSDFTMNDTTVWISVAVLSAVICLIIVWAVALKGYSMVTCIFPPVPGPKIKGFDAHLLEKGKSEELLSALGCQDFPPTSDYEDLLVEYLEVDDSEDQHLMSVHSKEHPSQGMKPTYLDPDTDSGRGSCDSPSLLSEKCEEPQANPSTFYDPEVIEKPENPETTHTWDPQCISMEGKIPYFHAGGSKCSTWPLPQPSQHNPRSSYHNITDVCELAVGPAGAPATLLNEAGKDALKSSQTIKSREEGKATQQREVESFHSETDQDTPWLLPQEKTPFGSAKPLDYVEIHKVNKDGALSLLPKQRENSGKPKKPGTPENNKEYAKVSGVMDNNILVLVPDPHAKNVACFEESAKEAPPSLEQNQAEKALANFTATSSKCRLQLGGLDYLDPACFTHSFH

T2: mouse PRLR construct with an HA tag on HEK293/mPRLR cells (mouse, UniProt Q08501 20-608)
T2 construct: whole, on cells; stably transfected into HEK293
T2 sequence (looked up): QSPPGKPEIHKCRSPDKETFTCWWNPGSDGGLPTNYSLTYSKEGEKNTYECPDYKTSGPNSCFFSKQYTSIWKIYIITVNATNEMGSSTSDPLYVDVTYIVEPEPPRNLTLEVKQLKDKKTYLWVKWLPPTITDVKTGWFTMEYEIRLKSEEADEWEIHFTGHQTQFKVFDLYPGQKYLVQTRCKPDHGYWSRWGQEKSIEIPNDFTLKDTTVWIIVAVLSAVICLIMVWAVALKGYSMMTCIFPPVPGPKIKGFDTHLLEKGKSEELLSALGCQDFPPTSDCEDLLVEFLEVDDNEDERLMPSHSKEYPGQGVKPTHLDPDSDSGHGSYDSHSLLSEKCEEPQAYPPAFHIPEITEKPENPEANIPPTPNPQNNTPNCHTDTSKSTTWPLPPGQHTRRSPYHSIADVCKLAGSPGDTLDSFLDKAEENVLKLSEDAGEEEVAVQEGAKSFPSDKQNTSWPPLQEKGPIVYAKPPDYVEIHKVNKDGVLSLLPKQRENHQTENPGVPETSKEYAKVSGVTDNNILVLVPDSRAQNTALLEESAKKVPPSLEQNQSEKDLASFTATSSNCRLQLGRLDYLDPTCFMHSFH

T3: mfPRLR.mmh (soluble monomeric macaca fascicularis PRLR) (macaca fascicularis)
T3 construct: soluble monomeric PRLR protein; also called macaca fascicularis (mf) PRLR.mmh; monkey PRLR
T3 chain: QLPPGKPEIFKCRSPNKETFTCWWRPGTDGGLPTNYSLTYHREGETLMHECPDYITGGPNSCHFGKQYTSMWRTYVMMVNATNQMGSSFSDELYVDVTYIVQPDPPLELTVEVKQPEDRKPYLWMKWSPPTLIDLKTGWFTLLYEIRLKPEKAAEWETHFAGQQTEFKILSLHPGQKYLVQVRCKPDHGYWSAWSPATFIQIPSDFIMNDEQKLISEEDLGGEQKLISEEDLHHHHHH

B1: H1H6783P (antibody, human IgG1, V domains shown)
VH: QVQLQQSGPGLVKPSQTLSLTCAISGDSVSSNTFAWNWIRQSPSRGLEWLGRTYYRSKWYIDYAESVKSRITITPDTSKNQFSLQLNSVTPEDTALYYCAGGYTYAPRGAFDIWGQGTMVTVSS
VL: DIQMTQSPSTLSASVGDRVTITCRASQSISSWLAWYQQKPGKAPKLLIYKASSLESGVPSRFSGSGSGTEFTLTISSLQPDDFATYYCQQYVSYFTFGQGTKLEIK
notes: human IgG1 Fc (H1H)
B2: H1H6795P (antibody, human IgG1, V domains shown)
VH: QVQLVQSGAEVKKPGASVKVSCKASGYTFGTSGITWVRQAPGQGLEWMGWSSAYNGKTDYAQKFQDRVTMTTDTSTTTGYMEMRSLTSDDTAVYYCTTVVRRPFDFWGQGTLVTVSS
VL: DIQMTQSPSSLSASVGDRVTITCRASQDINNFLAWFQQKPGKAPKSLIYAASSLQSGVPSKFSGGGSGTDFALTISSLQPEDFATYYCQQYSSYPITFGQGTRLEIK
notes: human IgG1 Fc (H1H)
B3: H1H6953N (antibody, human IgG1, V domains shown)
VH: EVQLLESGGGLVQPGGTLRLSCAASGFTFSAYAMSWVRQAPGKGLEWVSSINVRAGDTYYADSVKGRFTISRDNSKNTLFLLMNSLRAEDTAAYYCAKARYSSNWGFDFWGQGTLVTVSS
VL: DIVMTQSPDSLTVSLGARTTINCQSSQTILHSSNNHNYLAWYQQKPGLPPKLLIYWSSTRESGVPDRFSGSGSGTDFTLTISSLQAEDVAIYYCQQYSNTPYTFGQGTKLEIN
notes: also called H1M6953N
B4: H1H6958N2 (antibody, human IgG1, V domains shown)
VH: QVQLVESGGGVVQPGRSLRLSCGASGFTFRNYGMQWVRQGPGKGLEWVTLISFDGNDKYYADSVKGRFTISRDNSKNTLFLQMNSLRTEDTAVYYCARGGDFDYWGQGTLVTVSS
VL: DIQMTQSPSSLSASVGDRVTITCRASQDIRKDLGWYQQKPGKAPKRLIYAASSLHSGVPSRFSGSGSGTEFTLTISSLQPEDFATYYCLQHNSYPMYTFGQGTKLEIK
notes: also called H2M6958N2
B5: H1H6792P (antibody, human IgG1, V domains shown)
VH: EVQLVESGGGLVQPGRSLRLSCAASGFTLDDHAVHWVRQAPGKGLEWVSGISWNSVYIDYADSVKGRFTIFRDNAKNSLYLQMNSLRAEDTAFYYCARDIEGARDYWGQGTLVTVSS
VL: DIQMTQSPSSLSASVGDRVTITCRASQGIRNDLGWYQQKPGKAPKRLIYAASSLQSGVPSRFSGSGYGTEFTLTISSLQPEDFAPYYCLQHNSYPLTFGGGTKVEIK
notes: human IgG1 Fc (H1H)
B6: H1H6967N (antibody, human IgG1, V domains shown)
VH: EVQLVESGGDLVHPGRSLRLSCAASGFPFDEYAMHWVRQVPGKGLEWVSGISWSNNNIGYADSVKGRFTISRDNAKNSLYLQMNSLRPEDTAFYYCAKSGIFDSWGQGTLVTVSS
VL: EIVMTQSPATLSVSPGERATLSCRASQSVSRDLAWYQQKPGQAPRLLIHGASTRATGIPARFSGSGSGAEFTLIISSLQSEDFAVYYCQQYNNWPLTFGGGTKVEIK
notes: also called H2M6967N
B7: H1H6782P (antibody, human IgG1, V domains shown)
VH: EVQLVESGGGLVQPGRSLRLSCAASGFTFDDYAMHWVRQAPGKGLEWVSGIIWNSGHIGYGDSVKGRFTISRDNAKKSLYLQMNSLRAEDTALYYCARDSGRYQSYFDYWGQGTLVTVSS
VL: DIQMTQSPSTLSASVGDRVTITCRASHIISSWLAWYQQKPGKAPKVLIFKASSLESGVPSRFSGSGSGTEFTLTISSLQPDDFATYYCQQYNTYSRTFGQGTKVEIK
notes: human IgG1 Fc (H1H)
B8: H1H6774P (antibody, human IgG1, V domains shown)
VH: EVQLVESGGGLAQPGGSLRLSCVASGFTFSTYWMSWVRQAPGKGLDWVGNIKQDGSEQNYVDSVRGRFTISRDNAKNSLFLQMNSLRAEDTGVYYCATLLTKGDYWGQGTLVTVSS
VL: DIQMTQSPSSLSASVGDSVTITCRASQDISNYLDWFQQKPGKAPKSLIYAASILQGGVPSRFSGSGYGTDFTLTISSLQPEDFATYYCRQYKTYPFTFGPGTKVDIK
notes: human IgG1 Fc (H1H)
B9: H1H6807P (antibody, V domains shown)
VH: QVQLVESGGGVVQPGRSLRLSCAASGFTFSDYNMHWVRQAPGKGLEWVAVIWYDGSNKHYADSVKGRFTISRDNSKNTLYLQMNSLRAEDTAVYYCARDGFTIFGMVLDYWGQGTLVTVSS
VL: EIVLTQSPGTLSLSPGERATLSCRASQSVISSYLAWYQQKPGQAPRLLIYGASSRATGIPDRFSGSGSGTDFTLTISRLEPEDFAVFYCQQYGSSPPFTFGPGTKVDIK
notes: human IgG1 Fc (H1H)
B10: H1H6976N (antibody, human IgG1, V domains shown)
VH: EVQLLESGGGFVQPGGSLRLSCAASGFTFSSYAMSWVRQAPGKGLEWVSIISSNGRYTYYADSVKGRFTISRDNSKNTLYLQMNSLRAEDTAVYYCATVTGDWFDPWGQGTLVTVSS
VL: DIQLTQSPSFLSASVGDRVTITCWASQDIDISLAWYQQKPGKAPKLLIYAASTLQSGVPSKFSGSGSGTDFTLTISSLQPEDFSTYYCQQLNSYPITFGQGTRLDIK
notes: also called H2M6976N
B11: H1H6785P (antibody, human IgG1, V domains shown)
VH: EVQLVESGGGLVQPGGSLRLSCAASGFTFSSYEMNWVRQAPGKGLEWISYISSRGGTIYYADSIKGRFTIYRDNARNSLYLQMNSLRAEDTAIYYCARLSGVDIFDIWGQGTMVTVSS
VL: DIQMTQSPSSLSASVGDRVTITCRASQGISNYLAWYQQKPGKVPKLLIYFASTLQSGVPSRFSGGGSGTDFTLTISSLQPEDVATYYCQRYNSAPLTFGGGTKVEIK
notes: human IgG1 Fc (H1H)
B12: H1H6781P (antibody, human IgG1, V domains shown)
VH: EVQLVESGGDLVQPGESLRLSCTASGFTFNSYEMNWVRQAPGKGLEWVSYISSSGGTKYYVDSVKGRFTISRDNAKKSLYLQMNSLRADDTALYYCARLNGVDVFDIWGQGTMVTVSS
VL: B11 VL with G28D, S30F, Y36F, K45E, Y49S, F50A, G65S, D70Y, V83I
notes: human IgG1 Fc (H1H)

The binders below were run against T1, human PRLR construct with an HA tag on … (assay: FACS on HEK293/hPRLR cells).
B1 was tested, and the “FACS Cell Binding (Fold Above Background)” value was 37 fold. For B2, the “FACS Cell Binding (Fold Above Background)” value was 1 fold. For B3, the “FACS Cell Binding (Fold Above Background)” value was 37 fold. With B4 the “FACS Cell Binding (Fold Above Background)” value was 35 fold. In the case of B5, the “FACS Cell Binding (Fold Above Background)” value is reported as 37 fold. With B6 the “FACS Cell Binding (Fold Above Background)” value was 38 fold. For B7, the “FACS Cell Binding (Fold Above Background)” value was 41 fold. B8 was tested, and the “FACS Cell Binding (Fold Above Background)” value was 1 fold. B9 was tested, and the “FACS Cell Binding (Fold Above Background)” value was 32 fold. In the case of B10, the “FACS Cell Binding (Fold Above Background)” value is reported as 8 fold. In the case of B11, the “FACS Cell Binding (Fold Above Background)” value is reported as 37 fold. With B12 the “FACS Cell Binding (Fold Above Background)” value was 37 fold.

These binders were tested against T2, mouse PRLR construct with an HA tag on … (assay: FACS on HEK293/mPRLR cells).
With B1 the “FACS Cell Binding (Fold Above Background)” value was 1 fold. For B2, the “FACS Cell Binding (Fold Above Background)” value was 1 fold. With B3 the “FACS Cell Binding (Fold Above Background)” value was 2 fold. B4 was tested, and the “FACS Cell Binding (Fold Above Background)” value was 1 fold. B5 was tested, and the “FACS Cell Binding (Fold Above Background)” value was 3 fold. In the case of B6, the “FACS Cell Binding (Fold Above Background)” value is reported as 2 fold. In the case of B7, the “FACS Cell Binding (Fold Above Background)” value is reported as 4 fold. B8 was tested, and the “FACS Cell Binding (Fold Above Background)” value was 1 fold. With B9 the “FACS Cell Binding (Fold Above Background)” value was 2 fold. B10 was tested, and the “FACS Cell Binding (Fold Above Background)” value was 1 fold. With B11 the “FACS Cell Binding (Fold Above Background)” value was 2 fold. For B12, the “FACS Cell Binding (Fold Above Background)” value was 1 fold.

Molecular target: T3, mfPRLR.mmh (soluble monomeric macaca …)
Assay: SPR (Biacore), antibody capture, 37 C
Protocol: Measurements were conducted on a T200 Biacore instrument. Kinetic association (kₐ) and dissociation (kd) rate constants were determined by processing and fitting the data to a 1:1 binding model using Scrubber 2.0 curve fitting software.
With B1 the Kd was 4.74 nM, the “T 1/2” value was 9 min and the koff was 0.0013 s⁻¹. For the same binder, the kon was 273000 M⁻¹ s⁻¹. In the case of B2, the Kd is reported as 6.16 nM, the “T 1/2” value is reported as 2 min and the koff is reported as 0.00599 s⁻¹. The kon was 973000 M⁻¹ s⁻¹. B3 was tested, and the Kd was 2.71 nM, the “T 1/2” value was 4.5 min and the koff was 0.00256 s⁻¹. It also gave a kon of 947000 M⁻¹ s⁻¹. B4 was tested, and the Kd was 4.08 nM, the “T 1/2” value was 8.6 min and the koff was 0.00134 s⁻¹. It also gave a kon of 328000 M⁻¹ s⁻¹. In the case of B5, the Kd is reported as 9.37 nM, the “T 1/2” value is reported as 4 min and the koff is reported as 0.00286 s⁻¹. The kon was 305000 M⁻¹ s⁻¹. For B6, the Kd was 4.54 nM, the “T 1/2” value was 7.1 min and the koff was 0.00162 s⁻¹. The kon was 356000 M⁻¹ s⁻¹. B7 was tested, and the Kd was 1.99 nM, the “T 1/2” value was 15 min and the koff was 0.000767 s⁻¹. For the same binder, the kon was 385000 M⁻¹ s⁻¹. With B8 the Kd was 5 nM, the “T 1/2” value was 3 min and the koff was 0.00361 s⁻¹. The kon was 723000 M⁻¹ s⁻¹. With B9 the Kd was 0.448 nM, the “T 1/2” value was 32 min and the koff was 0.000359 s⁻¹. The kon was 802000 M⁻¹ s⁻¹. With B10 the Kd was 5.24 nM, the “T 1/2” value was 3.7 min and the koff was 0.00316 s⁻¹. For the same binder, the kon was 603000 M⁻¹ s⁻¹. With B11 the Kd was 1.52 nM, the “T 1/2” value was 26 min and the koff was 0.00045 s⁻¹. For the same binder, the kon was 297000 M⁻¹ s⁻¹. B12 was tested, and the Kd was 1.08 nM, the “T 1/2” value was 43 min and the koff was 0.000267 s⁻¹. For the same binder, the kon was 247000 M⁻¹ s⁻¹.
